# Measurements from the nanobody polyreactivity screen of Harvey et al. (2022).
# Assay: yeast display, Sf9 membrane polyspecificity reagent, FACS + sequencing; frameworks hold sequencing errors
# Method in brief: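 Using colony PCR, genes from sorted yeast display clones were amplified, then sequenced on MiSeq at 2 × 250 and filtered by CDR length. The clones had been stained with 10% biotinylated, detergent-solubilized Sf9 membrane reagent for 1 hour at 4 °C and sorted by FACS into low and high (top ~1%) gates on anti-HA and streptavidin fluorescence. Polyreactivity labels come from the gate of origin.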
row,Sequence,polyreactivity (PSR sort gate)
1,QVQLVESGGGLVQAGGSLRLICAASGSIFRSYAMGWYRQAPGKERELVAPIDRSGGSTYYADSVKGRLTISRDYAKNTVYCQLNSLKPEDTAVYNSNKTPHFPRPGFNYWGLGTQVTVSS,low polyreactivity
2,QVQLVESGGGLVQAGGSLRLICAASGSIFRYYVKGWYRQAPGKERELVASISYSVGRTYYADSVKGRFTISRDYAKNTVYLQMNSLKPEDTAVYYCAADRYWPYYSAYYTSYRMDYWGQGTQVTVSS,high polyreactivity
3,QVQLVESGGGLVQAGGSLRLICAASGSIFSSYAMGWYRQAPGTGRELVASISRRGGSTYYADSVKGRFTISRDNAKNTVYLQMNSLKPEDTAVYYCNASGGPYRYYYWGQGTQVTVSS,low polyreactivity
4,QVQLVESGGGLVQAGGSLRLICAASGSIFTSNAMGWYRQAPGKERELVAAITSDGAITYADSVKGRFTISRDNAKNTVYLQMNSLKPEDTAVYYCATEIEYYVGSVADMGYWGQGTQVTVSS,low polyreactivity
5,QVQLVESGGGLVQAGGSLRLICAASGSIFVNNAMGWYRQAPGKERELVAAISRSGGSTYYADSVKGRFTISRDNAKNTVYLQMNSLKPEDTAVYYCATVHRSSTPPEFNYWGQGTQVTVSS,high polyreactivity
6,QVQLVESGGGLVQAGGSLRLICAASGSIFYNNDMGWYRQAPGKERELVAAINWNGGSTYYADSVKGRFTISRDNAKNTVYLQMNSLKPEDTAVYYCNAEPFWYNYGYDDDYWGQGTQVTVSS,high polyreactivity
7,QVQLVESGGGLVQAGGSLRLICAASGSILYKYAMGWYRQAPGKERELVAAISSRGGNTYYADSVKGRFTISRDNSKNTVYLQMNSLKPEDTAVYYCAADLWAGKYGEYDYWGQGTQVTVSS,high polyreactivity
8,QVQLVESGGGLVQAGGSLRLICAASGSTFDLYAMGWYRQAPGKESELVAAITRCGSTYYADSVKGRFTISRDNAKNTVYLQMNSLKPEDTAVYYCAASRYYNTVHNGGDYWGQGTQVTLSS,high polyreactivity
9,QVQLVESGGGLVQAGGSLRLICAASGSTFGDYDMGWYRQAPGKETELVAAISNGGSTYYADSVKGRFTISRDYAKNTVYLQMNSLKREETAVYYCNADNVEIRSTYEYGRYLYGYWGQGTQVTVSS,low polyreactivity
10,QVQLVESGGGLVQAGGSLRLICAASGSTFGFYGMGWYRQAPGKERELVASIDSRGDSTYADSVKGRFTISRDNAKKTVYVQMNSLKPEDTAVYYCAAESWYTWFDSWGQGTQVTVSS,low polyreactivity
11,QVQLVESGGGLVQAGGSLRLICAASGSTFPTYAMGWYRQAPGKERELVAAISTRGGSTYYADSVKGRFTISRDNAKNTVYLQMNSVKPEDTAVYYCATGKTVGRYHYEYWGQGTQVTVSS,low polyreactivity
12,QVQLVESGGGLVQAGGSLRLICAASGSTFQLTAMGWYIQAPGTEREFVASITDSGGRTYYADSVKGRFTISRDNANNTVYLQMNSLKPVDTAVYYCNTAGAAERRRAYDHDYWGQGTQVTVSS,high polyreactivity
13,QVQLVESGGGLVQAGGSLRLICAASGSTFSSYAMGLYIQAPGKEREFVAAINTDGGSTYYADSVKGRFTISRDNAKNTVYLQMNSLKPEDTAVYYCAADDISLAAHFDSWGQGTQVTVSS,low polyreactivity
14,QVQLVESGGGLVQAGGSLRLICAASGSTFVFYAMGWYRQAPGKERELYATISTGGSTYADSVKGRFTISRDNSKNTVYLQMNSLIPEDTAVYYCNARLRSFTLSDAEYEYWGQGTQETVSS,low polyreactivity
15,QVQLVESGGGLVQAGGSLRLICAASGSTNPRNAMGWYRQAPGKERELDADITSGGSTNYADSVKGRFTISRDNAKNTVYLQMNRLKPEDTAVYYCAADEQVNTQYVVWGDYWGQGTQVTVSS,low polyreactivity
16,QVQLVESGGGLVQAGGSLRLICAASGSTSQINAMGWYRQAPGKERELVAAINSGDITNYADSVKGRFTISRDNAKNTVYLQMNSLKPEDTAVYYCNADILVVKFDYWGQGTQVTVSS,low polyreactivity
17,QVQLVESGGGLVQAGGSLRLICAASGSTYSYYAMAWYRQAPGKERELVAAINSSGGSTYYADSEKGRFTISRDKAKNTVYLQMNSLKPEDTAVYYGAAARRRTGVRMDYWGQGTQVTVSS,high polyreactivity
18,QVQLVESGGGLVQAGGSLRLICAASGYIFDHYAMGWYRQAPGKERELVAAINWSGGRTYYADSVKGRFTISRDNAKNTVYLQMNSLKPEDTAVYYCAAGGVSENDYWGQGTQVTVSS,high polyreactivity
19,QVQLVESGGGLVQAGGSLRLICAASRFTFPGYTLGWYRQEPGKERELVATINRSGSTTYADSVKGRFTISRDNAKNTVYLHMYRLKPQDTADYYCAAVVWGSGNKMDYWGQGTQVTGSS,high polyreactivity
20,QVQLVESGGGLVQAGGSLRLICAASRRTYYSNAMGWYRQAPGKERELVAASTSTDDSTYYADSVKGRFTISRDNAKNTVYLQMNSLKPEDTAVYYCNTDGLIAIRGLWWVEYDYWGQGTQVTVSS,low polyreactivity
21,QVQLVESGGGLVQAGGSLRLICAATGITFEGYAMGWYRQAPGKERELVAAIRSSGTSTYYADSVKGRFTISRDNAKNTVYLQMNSLKPEDTAVYYCNRARSSSRYDYWGQGTQVTVSS,low polyreactivity
22,QVQLVESGGGLVQAGGSLRLICAAWSIFYLNAMGWYRQAPGKERELVAAISSAGSTYYADSVKGRFTISRDNAKNSVYLQMNSLKPEDTAVYYCAAYWYDSPGVTEIWYDYWGQGTQVTVSS,low polyreactivity

row,Sequence,polyreactivity (PSR sort gate)
1,QVQLVESGGGLVQAGGSLRLICAAYGLTFTRNAMGWYRQARGKERELVAGITRGGSTYHADSVKGRFTISRDNAKNTVYLQMNSLKPEYTAVYYCAAGVQYARYQARYYYWGQGTQVTVSS,high polyreactivity
2,QVQLVESGGGLVQAGGSLRLICADSGLTFSCYTMGGYRQAPGKERELVADITVSGGTTYYADSVKGRFSISRDNAKNTVYLQMNSLKPEDTSVYYCNAQDTFTYYSSSPTYDYWGQGTQVTVSS,low polyreactivity
3,QVQLVESGGGLVQAGGSLRLICADSGRIVPGYAMGWYRQAPGKERELVAAISTNGGRTYYADSVKGRFTISRDNAKYTVYFQRNSLKPEDTAVYYCNAARAVYTQKRFDSWGQGTQVTVSS,high polyreactivity
4,QVQLVESGGGLVQAGGSLRLICAPSGIIFTSNTMGWSRQAPGNERECVASINWNGSSTYADSVKGRFTISRDIAKNTVYLQMNSLKPEDTAVFYCNADYNRNSVQFSLYDYWGQGTQVTVSS,low polyreactivity
5,QVQLVESGGGLVQAGGSLRLICDASGRIFATNAIGWYRQAPGKERELVATITRSAGRTYYADSVKGRFTISRDNAKNTVYLQMNSLKPEDTAVYYCAASYWDTEPGYREYDYWGQGTQVTVSS,low polyreactivity
6,QVQLVESGGGLVQAGGSLRLICDASGSIFEDYTMGWYRPGPGKERELVAASSRSGVRKYYADSVKGLFTISRDNAKNTVNLQMNSLKPEDTGVYYCARTRVASKGYDYWGQGTQVTVSS,high polyreactivity
7,QVQLVESGGGLVQAGGSLRLICDASGSTFERYALGWYRQAPGKERELVAAITWGGGSTNYADSVKGRFTISRDNEKNTVYLQMNSLNPEDTAVYYCRPLYLGGDYWGQGTQVTVSS,low polyreactivity
8,QVQLVESGGGLVQAGGSLRLICSASGSIFPQYAMVSYRPEPGKERALFAAISYSGGRSYYADSVKGRFTISRDIAKNTVYLQMNSLKTEYTGVYYWAARVKRGIPTYGKCYYAFGDWGQGTQVTVSS,high polyreactivity
9,QVQLVESGGGLVQAGGSLRLISAASGITFRYYVMGWYRHAPGKERELVASISWGGGSTYYADSVKGRFTISRDNAKNTVYLHMNSLIPEDTAVYYCAAEYWVPAVKFGYEFWGQGSQVTVSS,high polyreactivity
10,QVQLVESGGGLVQAGGSLRLISAASGRTFRVYAIGWYRPAPGKEREFVATISVRGGSTYYADSVKGRFTISRDNAKNTVYLQMNSLKPEDTAFYYCAADSYPYVYALYDYWGQGTQVTVSS,low polyreactivity
11,QVQLVESGGGLVQAGGSLRLISAASGSIFDEYAMGWYRQAPGKERELVAAISSSGTSTYYADSVKGRFTISRDNAKNTVYLQMNSLKPEYTAVYYCAARSAFLKSGYLMDYWGHGTQVTVSS,low polyreactivity
12,QVQLVESGGGLVQAGGSLRLMCAASGSTFRRNAMGWYRQAPGKERELVASISWRAGSTYYADSVKGRFTISRDNAKNTVYLQMNSLKQEDTAVYYCAASYYYYPSWEYEYWGQGTQVTVSS,high polyreactivity
13,QVQLVESGGGLVQAGGSLRLNCAASGFTFYTYAMGWYRQAPGKERELVAAITSGGGTYYADSVKGRFTISRDNAKYSVYLQMNSLKPEDTAVYYCNRASRRGYYYPYNYWGQGTQVTVSS,high polyreactivity
14,QVQLVESGGGLVQAGGSLRLNCAASGIIFIVYRMGWYRQAPGKERELVASINYGNGSTYYADSVKGRFTISRDNAKTTVYLQMNSLKQEDTAVYYCNADYTGTRTDSVTPEYEYWGQGTQVTVSS,low polyreactivity
15,QVQLVESGGGLVQAGGSLRLNCAASGITCEYYAMGWYREAPGKERDLVAAISWSGGSTYYADSVKGRFTNSRDNANNTVYLQINSLKTEDTAVYDFYAVGFTYLDLYGYWGQGTQLTVSS,high polyreactivity
16,QVQLVESGGGLVQAGGSLRLRCAASANTFGFYAMGWYRQAPGKERELVAGITSGDSTYYADSVKGRFTISRDNAKNTVYLQMNSLKPEDSAVYYCATAPYVSSRRYGPYEYWGQGTQVTVSS,low polyreactivity
17,QVQLVESGGGLVQAGGSLRLRCAASARTFGKYAMGWYRQAPGKERELVASNSLSGGSTYYADSVKGRFTISRDNAKNTVYLQMNSLKPEDTAVYSCAAKHGWYGLGYWGQGTQVTVSS,low polyreactivity
18,QVQLVESGGGLVQAGGSLRLRCAASGFTFHRYAMGWYRPAPGKERELVAGITRRSGSTFYADSVKGRFTISRDNAKNTVYLQMNSLKPEDTAVYYCAATVPGLHWIYDYWGQGTQVTVSS,high polyreactivity
19,QVQLVESGGGLVQAGGSLRLRCAASGFTFYRYAMGWYRQAPGKERELVAAISQRGGTTYYADSVKGRFTISRDNSKNTVYLQMNSLKPDDPAVYYCAARGRAYQNAYEYDYWGQGTQVTVSS,high polyreactivity
20,QVQLVESGGGLVQAGGSLRLRCAASGFTSYINAMGWYRQAPGKERELVAGITWSTGNTYYADSVKGRFTISRDNAKNTVYLQMNSLKPEDTAVYYCAADFYVAYVGVQPYWMDYWGQGTEVTVSS,low polyreactivity
21,QVQLVESGGGLVQAGGSLRLRCAASGGNFDNYAMGWYRQAPGKERELVAAISRSGSSTFYADSVNGRFTISRDNAKNTVYLQMNSLKPEDTAVYYCSARYYYFAVYYGYIFEYDYWGQGTQLTVSS,low polyreactivity
